Experimental data from patent US20240270846A1 (published 2024).

B1: GLS3000 H27dT (Kabat) L chain altered form, one-arm antibody with CE115HA000 (antibody, human IgG1, kappa, L234A L235A, N297A, name in Kabat numbering)
heavy: QVQLVESGGGVVQPGRSLRLSCAASGFTFSNAWMHWVRQAPGKGLEWVAQIKAKSNNYATYYAESVKGRFTISRDDSKNSLYLQMNSLKTEDTAVYYCRYVHYGAYYGVDAWGQGTTVTVSSASTKGPSVFPLAPSSKSTSGGTAALGCLVKDYFPEPVTVSWNSGALTSGVHTFPAVLQSSGLYSLSSVVTVPSSSLGTQTYICNVNHKPSNTKVDKKVEPKSCDKTHTCPPCPAPEAAGGPSVFLFPPKPKDTLMISRTPEVTCVVVDVSHEDPEVKFNWYVDGVEVHNAKTKPREEQYASTYRVVSVLTVLHQDWLNGKEYKCKVSNKALPAPIEKTISKAKGQPREPQVYTLPPSRCELTKNQVSLSCAVKGFYPSDIAVEWESNGQPENNYKTTPPVLDSDGSFFLVSKLTVDKSRWQQGNVFSCSVMHEALHNHYTQKSLSLSPDYKDDDDK
chain: EPKSSDKTHTCPPCPAPELLGGPSVFLFPPKPKDTLMISRTPEVTCVVVDVSHEDPEVKFNWYVDGVEVHNAKTKPREEQYNSTYRVVSVLTVLHQDWLNGKEYKCKVSNKALPAPIEKTISKAKGQPREPQVCTLPPSRDELTKNQVSLWCLVKGFYPSDIAVEWESNGQPENNYKTTPPVLDSDGSFFLYSKLTVDKSRWQQGNVFSCSVMHEALHNRYTQKSLSLSP
light: DIVMTQSPLSLPVTPGEPASISCRSSQSLVTSNRNTYLHWYQQKPGQAPRLLIYKVSNRFSGVPDRFSGSGSGTDFTLKISRVEAEDVGVYYCGQGTQVPYTFGQGTKLEIKRTVAAPSVFIFPPSDEQLKSGTASVVCLLNNFYPREAKVQWKVDNALQSGNSQESVTEQDSKDSTYSLSSTLTLSKADYEKHKVYACEVTHQGLSSPVTKSFNRGEC
notes: one-arm antibody
B2: GLS3000 H27dW (Kabat) L chain altered form, one-arm antibody with CE115HA000 (antibody, human IgG1, kappa, L234A L235A, N297A, name in Kabat numbering)
heavy: QVQLVESGGGVVQPGRSLRLSCAASGFTFSNAWMHWVRQAPGKGLEWVAQIKAKSNNYATYYAESVKGRFTISRDDSKNSLYLQMNSLKTEDTAVYYCRYVHYGAYYGVDAWGQGTTVTVSSASTKGPSVFPLAPSSKSTSGGTAALGCLVKDYFPEPVTVSWNSGALTSGVHTFPAVLQSSGLYSLSSVVTVPSSSLGTQTYICNVNHKPSNTKVDKKVEPKSCDKTHTCPPCPAPEAAGGPSVFLFPPKPKDTLMISRTPEVTCVVVDVSHEDPEVKFNWYVDGVEVHNAKTKPREEQYASTYRVVSVLTVLHQDWLNGKEYKCKVSNKALPAPIEKTISKAKGQPREPQVYTLPPSRCELTKNQVSLSCAVKGFYPSDIAVEWESNGQPENNYKTTPPVLDSDGSFFLVSKLTVDKSRWQQGNVFSCSVMHEALHNHYTQKSLSLSPDYKDDDDK
chain: EPKSSDKTHTCPPCPAPELLGGPSVFLFPPKPKDTLMISRTPEVTCVVVDVSHEDPEVKFNWYVDGVEVHNAKTKPREEQYNSTYRVVSVLTVLHQDWLNGKEYKCKVSNKALPAPIEKTISKAKGQPREPQVCTLPPSRDELTKNQVSLWCLVKGFYPSDIAVEWESNGQPENNYKTTPPVLDSDGSFFLYSKLTVDKSRWQQGNVFSCSVMHEALHNRYTQKSLSLSP
light: DIVMTQSPLSLPVTPGEPASISCRSSQSLVWSNRNTYLHWYQQKPGQAPRLLIYKVSNRFSGVPDRFSGSGSGTDFTLKISRVEAEDVGVYYCGQGTQVPYTFGQGTKLEIKRTVAAPSVFIFPPSDEQLKSGTASVVCLLNNFYPREAKVQWKVDNALQSGNSQESVTEQDSKDSTYSLSSTLTLSKADYEKHKVYACEVTHQGLSSPVTKSFNRGEC
notes: one-arm antibody
B3: GLS3000 H34A (Kabat) L chain altered form, one-arm antibody with CE115HA000 (antibody, human IgG1, kappa, L234A L235A, N297A, name in Kabat numbering)
heavy: QVQLVESGGGVVQPGRSLRLSCAASGFTFSNAWMHWVRQAPGKGLEWVAQIKAKSNNYATYYAESVKGRFTISRDDSKNSLYLQMNSLKTEDTAVYYCRYVHYGAYYGVDAWGQGTTVTVSSASTKGPSVFPLAPSSKSTSGGTAALGCLVKDYFPEPVTVSWNSGALTSGVHTFPAVLQSSGLYSLSSVVTVPSSSLGTQTYICNVNHKPSNTKVDKKVEPKSCDKTHTCPPCPAPEAAGGPSVFLFPPKPKDTLMISRTPEVTCVVVDVSHEDPEVKFNWYVDGVEVHNAKTKPREEQYASTYRVVSVLTVLHQDWLNGKEYKCKVSNKALPAPIEKTISKAKGQPREPQVYTLPPSRCELTKNQVSLSCAVKGFYPSDIAVEWESNGQPENNYKTTPPVLDSDGSFFLVSKLTVDKSRWQQGNVFSCSVMHEALHNHYTQKSLSLSPDYKDDDDK
chain: EPKSSDKTHTCPPCPAPELLGGPSVFLFPPKPKDTLMISRTPEVTCVVVDVSHEDPEVKFNWYVDGVEVHNAKTKPREEQYNSTYRVVSVLTVLHQDWLNGKEYKCKVSNKALPAPIEKTISKAKGQPREPQVCTLPPSRDELTKNQVSLWCLVKGFYPSDIAVEWESNGQPENNYKTTPPVLDSDGSFFLYSKLTVDKSRWQQGNVFSCSVMHEALHNRYTQKSLSLSP
light: DIVMTQSPLSLPVTPGEPASISCRSSQSLVHSNRNTYLAWYQQKPGQAPRLLIYKVSNRFSGVPDRFSGSGSGTDFTLKISRVEAEDVGVYYCGQGTQVPYTFGQGTKLEIKRTVAAPSVFIFPPSDEQLKSGTASVVCLLNNFYPREAKVQWKVDNALQSGNSQESVTEQDSKDSTYSLSSTLTLSKADYEKHKVYACEVTHQGLSSPVTKSFNRGEC
notes: one-arm antibody
B4: GLS3000 H27dY (Kabat) L chain altered form, one-arm antibody with CE115HA000 (antibody, human IgG1, kappa, L234A L235A, N297A, name in Kabat numbering)
heavy: QVQLVESGGGVVQPGRSLRLSCAASGFTFSNAWMHWVRQAPGKGLEWVAQIKAKSNNYATYYAESVKGRFTISRDDSKNSLYLQMNSLKTEDTAVYYCRYVHYGAYYGVDAWGQGTTVTVSSASTKGPSVFPLAPSSKSTSGGTAALGCLVKDYFPEPVTVSWNSGALTSGVHTFPAVLQSSGLYSLSSVVTVPSSSLGTQTYICNVNHKPSNTKVDKKVEPKSCDKTHTCPPCPAPEAAGGPSVFLFPPKPKDTLMISRTPEVTCVVVDVSHEDPEVKFNWYVDGVEVHNAKTKPREEQYASTYRVVSVLTVLHQDWLNGKEYKCKVSNKALPAPIEKTISKAKGQPREPQVYTLPPSRCELTKNQVSLSCAVKGFYPSDIAVEWESNGQPENNYKTTPPVLDSDGSFFLVSKLTVDKSRWQQGNVFSCSVMHEALHNHYTQKSLSLSPDYKDDDDK
chain: EPKSSDKTHTCPPCPAPELLGGPSVFLFPPKPKDTLMISRTPEVTCVVVDVSHEDPEVKFNWYVDGVEVHNAKTKPREEQYNSTYRVVSVLTVLHQDWLNGKEYKCKVSNKALPAPIEKTISKAKGQPREPQVCTLPPSRDELTKNQVSLWCLVKGFYPSDIAVEWESNGQPENNYKTTPPVLDSDGSFFLYSKLTVDKSRWQQGNVFSCSVMHEALHNRYTQKSLSLSP
light: DIVMTQSPLSLPVTPGEPASISCRSSQSLVYSNRNTYLHWYQQKPGQAPRLLIYKVSNRFSGVPDRFSGSGSGTDFTLKISRVEAEDVGVYYCGQGTQVPYTFGQGTKLEIKRTVAAPSVFIFPPSDEQLKSGTASVVCLLNNFYPREAKVQWKVDNALQSGNSQESVTEQDSKDSTYSLSSTLTLSKADYEKHKVYACEVTHQGLSSPVTKSFNRGEC
notes: one-arm antibody
B5: GLS3000 H27dV (Kabat) L chain altered form, one-arm antibody with CE115HA000 (antibody, human IgG1, kappa, L234A L235A, N297A, name in Kabat numbering)
heavy: QVQLVESGGGVVQPGRSLRLSCAASGFTFSNAWMHWVRQAPGKGLEWVAQIKAKSNNYATYYAESVKGRFTISRDDSKNSLYLQMNSLKTEDTAVYYCRYVHYGAYYGVDAWGQGTTVTVSSASTKGPSVFPLAPSSKSTSGGTAALGCLVKDYFPEPVTVSWNSGALTSGVHTFPAVLQSSGLYSLSSVVTVPSSSLGTQTYICNVNHKPSNTKVDKKVEPKSCDKTHTCPPCPAPEAAGGPSVFLFPPKPKDTLMISRTPEVTCVVVDVSHEDPEVKFNWYVDGVEVHNAKTKPREEQYASTYRVVSVLTVLHQDWLNGKEYKCKVSNKALPAPIEKTISKAKGQPREPQVYTLPPSRCELTKNQVSLSCAVKGFYPSDIAVEWESNGQPENNYKTTPPVLDSDGSFFLVSKLTVDKSRWQQGNVFSCSVMHEALHNHYTQKSLSLSPDYKDDDDK
chain: EPKSSDKTHTCPPCPAPELLGGPSVFLFPPKPKDTLMISRTPEVTCVVVDVSHEDPEVKFNWYVDGVEVHNAKTKPREEQYNSTYRVVSVLTVLHQDWLNGKEYKCKVSNKALPAPIEKTISKAKGQPREPQVCTLPPSRDELTKNQVSLWCLVKGFYPSDIAVEWESNGQPENNYKTTPPVLDSDGSFFLYSKLTVDKSRWQQGNVFSCSVMHEALHNRYTQKSLSLSP
light: DIVMTQSPLSLPVTPGEPASISCRSSQSLVVSNRNTYLHWYQQKPGQAPRLLIYKVSNRFSGVPDRFSGSGSGTDFTLKISRVEAEDVGVYYCGQGTQVPYTFGQGTKLEIKRTVAAPSVFIFPPSDEQLKSGTASVVCLLNNFYPREAKVQWKVDNALQSGNSQESVTEQDSKDSTYSLSSTLTLSKADYEKHKVYACEVTHQGLSSPVTKSFNRGEC
notes: one-arm antibody
B6: GLS3000 K50A (Kabat) L chain altered form, one-arm antibody with CE115HA000 (antibody, human IgG1, kappa, L234A L235A, N297A, name in Kabat numbering)
heavy: QVQLVESGGGVVQPGRSLRLSCAASGFTFSNAWMHWVRQAPGKGLEWVAQIKAKSNNYATYYAESVKGRFTISRDDSKNSLYLQMNSLKTEDTAVYYCRYVHYGAYYGVDAWGQGTTVTVSSASTKGPSVFPLAPSSKSTSGGTAALGCLVKDYFPEPVTVSWNSGALTSGVHTFPAVLQSSGLYSLSSVVTVPSSSLGTQTYICNVNHKPSNTKVDKKVEPKSCDKTHTCPPCPAPEAAGGPSVFLFPPKPKDTLMISRTPEVTCVVVDVSHEDPEVKFNWYVDGVEVHNAKTKPREEQYASTYRVVSVLTVLHQDWLNGKEYKCKVSNKALPAPIEKTISKAKGQPREPQVYTLPPSRCELTKNQVSLSCAVKGFYPSDIAVEWESNGQPENNYKTTPPVLDSDGSFFLVSKLTVDKSRWQQGNVFSCSVMHEALHNHYTQKSLSLSPDYKDDDDK
chain: EPKSSDKTHTCPPCPAPELLGGPSVFLFPPKPKDTLMISRTPEVTCVVVDVSHEDPEVKFNWYVDGVEVHNAKTKPREEQYNSTYRVVSVLTVLHQDWLNGKEYKCKVSNKALPAPIEKTISKAKGQPREPQVCTLPPSRDELTKNQVSLWCLVKGFYPSDIAVEWESNGQPENNYKTTPPVLDSDGSFFLYSKLTVDKSRWQQGNVFSCSVMHEALHNRYTQKSLSLSP
light: DIVMTQSPLSLPVTPGEPASISCRSSQSLVHSNRNTYLHWYQQKPGQAPRLLIYAVSNRFSGVPDRFSGSGSGTDFTLKISRVEAEDVGVYYCGQGTQVPYTFGQGTKLEIKRTVAAPSVFIFPPSDEQLKSGTASVVCLLNNFYPREAKVQWKVDNALQSGNSQESVTEQDSKDSTYSLSSTLTLSKADYEKHKVYACEVTHQGLSSPVTKSFNRGEC
notes: one-arm antibody

Each binder was assayed against T1, CD3 epsilon homodimer protein (UniProt P07766 23-126) (assay: SPR Biacore T200, CD3 epsilon homodimer immobilized; vs unaltered GLS3000;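 note: antibody variants flowed as analyte over CD3 epsilon homodimer amine-coupled to a CM4 chip, at 25 °C in HBS-EP+ running buffer, fitted with Biacore T200 Evaluation Software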).
T1 construct: construct not described; homodimer as printed; also called CD3 (CD3 epsilon)
T1 sequence (P07766 23-126): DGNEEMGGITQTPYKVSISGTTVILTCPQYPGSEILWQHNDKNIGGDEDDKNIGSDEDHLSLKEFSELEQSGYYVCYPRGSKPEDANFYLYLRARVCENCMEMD

In order of rising “KD ratio to GLS3000 (Affinity up)” value:
1. B3  1.18
2. B2  1.86
3. B4  1.98
4. B6  59.5
5. B5  354
6. B1  13000
